Results taken from patent US20160185837A1, “GIP AND GLP-1 RECEPTOR DUAL-AGONISTS FOR THE TREATMENT OF DIABETES” (Medimmune Limited, priority 2013, published 2016).

Tests used:
Assay in all cases: cell-based or functional assay
[1] = molecular target: mouse GLP-1 receptor (mouse) (UniProt O35659)
rat GLP-1 receptor (rat) = rat GLP-1 receptor (rat) (UniProt P32301)
[2] = molecular target: T1, human GIP receptor (human) (UniProt P48546)
T1 sequence (looked up): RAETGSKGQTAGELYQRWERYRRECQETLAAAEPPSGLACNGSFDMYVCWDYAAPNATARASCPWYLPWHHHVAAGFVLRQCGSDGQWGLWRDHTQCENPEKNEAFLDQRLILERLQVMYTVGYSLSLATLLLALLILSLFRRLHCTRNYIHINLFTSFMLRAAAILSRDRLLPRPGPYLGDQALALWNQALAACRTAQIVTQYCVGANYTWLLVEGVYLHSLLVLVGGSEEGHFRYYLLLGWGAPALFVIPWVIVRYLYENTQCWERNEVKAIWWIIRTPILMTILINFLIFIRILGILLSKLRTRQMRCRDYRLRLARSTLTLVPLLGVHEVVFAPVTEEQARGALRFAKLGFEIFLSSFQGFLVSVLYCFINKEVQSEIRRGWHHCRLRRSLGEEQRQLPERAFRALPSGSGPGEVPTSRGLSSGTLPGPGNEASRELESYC

[3] = molecular target: cynomolgus monkey glucagon receptor (cynomolgus monkey)
[4] = molecular target: cynomolgus monkey GLP-1 receptor (cynomolgus monkey) (UniProt F8V479)
Sequence of cynomolgus monkey GLP-1 receptor (cynomolgus monkey) (F8V479 entry or part of it): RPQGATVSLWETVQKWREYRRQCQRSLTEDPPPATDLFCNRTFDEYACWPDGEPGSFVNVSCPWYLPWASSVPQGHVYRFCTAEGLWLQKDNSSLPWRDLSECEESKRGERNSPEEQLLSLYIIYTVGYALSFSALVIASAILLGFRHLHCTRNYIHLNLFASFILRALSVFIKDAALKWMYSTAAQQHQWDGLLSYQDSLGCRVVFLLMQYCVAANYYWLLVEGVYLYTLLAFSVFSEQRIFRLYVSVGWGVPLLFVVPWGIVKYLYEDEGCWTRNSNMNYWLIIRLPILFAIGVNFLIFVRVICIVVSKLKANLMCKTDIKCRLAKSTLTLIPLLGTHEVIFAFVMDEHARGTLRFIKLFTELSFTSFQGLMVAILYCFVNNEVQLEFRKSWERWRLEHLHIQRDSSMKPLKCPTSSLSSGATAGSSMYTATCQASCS

Sequence of mouse GLP-1 receptor (mouse) (O35659 22-463): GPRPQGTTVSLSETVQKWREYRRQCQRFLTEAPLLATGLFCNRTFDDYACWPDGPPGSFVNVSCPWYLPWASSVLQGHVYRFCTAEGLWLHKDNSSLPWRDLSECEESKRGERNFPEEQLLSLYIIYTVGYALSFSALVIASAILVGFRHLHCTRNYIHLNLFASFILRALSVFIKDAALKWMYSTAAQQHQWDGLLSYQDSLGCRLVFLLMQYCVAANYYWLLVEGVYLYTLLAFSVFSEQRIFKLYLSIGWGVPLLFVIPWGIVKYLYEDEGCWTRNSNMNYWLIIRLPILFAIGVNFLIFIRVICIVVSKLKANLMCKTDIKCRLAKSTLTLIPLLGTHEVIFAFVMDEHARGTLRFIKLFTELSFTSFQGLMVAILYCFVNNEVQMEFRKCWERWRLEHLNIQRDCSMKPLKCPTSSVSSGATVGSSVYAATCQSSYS
Sequence of rat GLP-1 receptor (rat) (P32301 22-463): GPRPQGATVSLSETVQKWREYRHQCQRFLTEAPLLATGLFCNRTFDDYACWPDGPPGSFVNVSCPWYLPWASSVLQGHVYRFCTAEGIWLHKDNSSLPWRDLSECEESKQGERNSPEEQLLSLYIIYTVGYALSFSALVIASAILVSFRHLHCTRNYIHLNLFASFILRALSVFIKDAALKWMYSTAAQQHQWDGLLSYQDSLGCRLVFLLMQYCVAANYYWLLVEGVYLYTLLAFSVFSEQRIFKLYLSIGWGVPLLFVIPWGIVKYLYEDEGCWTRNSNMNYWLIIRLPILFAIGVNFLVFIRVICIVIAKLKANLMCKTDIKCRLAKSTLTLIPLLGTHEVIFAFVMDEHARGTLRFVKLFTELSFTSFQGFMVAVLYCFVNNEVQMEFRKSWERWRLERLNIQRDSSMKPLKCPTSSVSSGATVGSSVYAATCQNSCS

Substance: glucagon (from UniProt P01275 53-81) (peptide)
- cAMP EC50 [1]: 1.8 nM
- cAMP EC50 (rat GLP-1 receptor (rat)): 0.54 nM

Substance: human GIP (peptide)
- cAMP EC50 [2]: 0.0047 nM

Substance: liraglutide (peptide)
- cAMP EC50, 4.2% cyno serum albumin [3]: > 1000 nM
- cAMP EC50, 4.2% cyno serum albumin [4]: 0.025 nM
